One experiment deals with T1, recombinant VEGFR2/Fc (Homo sapiens (assumed), UniProt P35968).
T1 construct: vascular endothelial growth factor receptor 2 (VEGFR2), recombinant Fc fusion protein; Fc fusions of this supplier usually hold the extracellular domain (surmise); also called vascular endothelial growth factor receptor 2 Fc fusion; source: bought: R&D Systems
Nature of the experiment: ELISA; VEGFR/Fc (0.25 ug/mL) captured on plates coated with goat anti-human IgG-Fc; dilutions of antibody-urease conjugate or biotinylated antibody in 0.1% BSA/T-TBS, room temperature, 2 h; conjugates detected with rabbit anti-urease and goat anti-rabbit-AP, biotinylated antibody with streptavidin-alkaline phosphatase; A405. The note with it: both partners purified. On the technique in general: An ELISA detects its analyte on a solid surface through an enzyme-linked reagent.

The target of experiment [1] is T2, VEGFR2 expressed by 293/KDR cells (Homo sapiens (assumed; KDR), UniProt P35968).
T2 construct: vascular endothelial growth factor receptor 2 (VEGFR2, KDR) expressed on 293/KDR cells; source: 293/KDR cells, on the cell surface
The experiment is described as follows: flow cytometry on cells; 293/KDR cells incubated with conjugate or biotinylated antibody in staining buffer (PBS with Ca2+ and Mg2+, 0.02% NaN3, 2% FBS) at 2-8 C for 1 h; conjugates detected with mouse anti-urease and AF488-anti-mouse IgG, biotinylated antibody with PE-SA; signal as ratio to 293 cells or to a biotin-isotype control. The conditions noted are these: one partner purified.

The target in a further experiment is T3, V21H4-DOS47 (llama | jack bean (Canavalia ensiformis)).
T3 construct: as the chain of m1; residues 1-127 of V21H4; urease, jack bean (Canavalia ensiformis), homohexamer, purified from crude urease; Antibody-urease conjugate; the standard method gives 8.7-9.2; also called V21-DOS47; V21H4-DOS47 (8.8 antibodies/urease); source: conjugate purified by diafiltration; copies: 8.8 + 6
Nature of the experiment: ELISA; VEGFR/Fc (0.25 ug/mL) captured on plates coated with goat anti-human IgG-Fc; dilutions of antibody-urease conjugate or biotinylated antibody in 0.1% BSA/T-TBS, room temperature, 2 h; conjugates detected with rabbit anti-urease and goat anti-rabbit-AP, biotinylated antibody with streptavidin-alkaline phosphatase; A405. The conditions noted are these: both partners purified.

T2 sequence (P35968 20-1356): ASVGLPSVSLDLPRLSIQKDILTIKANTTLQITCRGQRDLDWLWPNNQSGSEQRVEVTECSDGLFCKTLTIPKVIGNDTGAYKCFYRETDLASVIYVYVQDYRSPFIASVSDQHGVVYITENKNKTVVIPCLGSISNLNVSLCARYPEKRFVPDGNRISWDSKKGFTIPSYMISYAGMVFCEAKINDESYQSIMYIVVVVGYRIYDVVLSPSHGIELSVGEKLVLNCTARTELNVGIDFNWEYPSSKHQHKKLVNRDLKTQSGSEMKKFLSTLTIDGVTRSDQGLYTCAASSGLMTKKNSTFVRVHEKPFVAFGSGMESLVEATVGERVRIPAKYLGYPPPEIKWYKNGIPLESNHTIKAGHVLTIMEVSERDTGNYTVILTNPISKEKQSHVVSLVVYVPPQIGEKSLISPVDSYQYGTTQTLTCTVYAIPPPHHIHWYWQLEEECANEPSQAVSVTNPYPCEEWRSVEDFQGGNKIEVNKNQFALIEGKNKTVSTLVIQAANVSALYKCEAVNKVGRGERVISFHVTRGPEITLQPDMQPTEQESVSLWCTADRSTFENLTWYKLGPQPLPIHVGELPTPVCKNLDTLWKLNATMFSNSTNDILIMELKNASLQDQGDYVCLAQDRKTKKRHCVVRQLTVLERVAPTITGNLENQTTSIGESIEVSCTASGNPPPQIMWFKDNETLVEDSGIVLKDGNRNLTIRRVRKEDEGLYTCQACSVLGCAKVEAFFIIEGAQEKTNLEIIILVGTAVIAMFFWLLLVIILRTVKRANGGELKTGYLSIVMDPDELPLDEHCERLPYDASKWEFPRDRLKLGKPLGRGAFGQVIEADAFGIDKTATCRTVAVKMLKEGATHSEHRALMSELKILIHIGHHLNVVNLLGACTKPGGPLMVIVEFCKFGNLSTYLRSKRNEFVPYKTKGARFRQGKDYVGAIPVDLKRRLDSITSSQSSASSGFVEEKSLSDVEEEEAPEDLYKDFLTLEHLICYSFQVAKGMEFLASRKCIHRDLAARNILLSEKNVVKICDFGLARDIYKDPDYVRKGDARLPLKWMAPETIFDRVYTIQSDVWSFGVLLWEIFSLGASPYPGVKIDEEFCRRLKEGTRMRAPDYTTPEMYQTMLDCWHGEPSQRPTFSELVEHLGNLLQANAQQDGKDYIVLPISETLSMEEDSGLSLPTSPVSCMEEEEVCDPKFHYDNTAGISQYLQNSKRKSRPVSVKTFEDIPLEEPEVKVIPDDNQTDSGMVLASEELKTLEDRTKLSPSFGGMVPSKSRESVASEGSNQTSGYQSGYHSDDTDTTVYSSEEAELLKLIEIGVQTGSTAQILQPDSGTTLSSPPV
T1 sequence (P35968 20-764): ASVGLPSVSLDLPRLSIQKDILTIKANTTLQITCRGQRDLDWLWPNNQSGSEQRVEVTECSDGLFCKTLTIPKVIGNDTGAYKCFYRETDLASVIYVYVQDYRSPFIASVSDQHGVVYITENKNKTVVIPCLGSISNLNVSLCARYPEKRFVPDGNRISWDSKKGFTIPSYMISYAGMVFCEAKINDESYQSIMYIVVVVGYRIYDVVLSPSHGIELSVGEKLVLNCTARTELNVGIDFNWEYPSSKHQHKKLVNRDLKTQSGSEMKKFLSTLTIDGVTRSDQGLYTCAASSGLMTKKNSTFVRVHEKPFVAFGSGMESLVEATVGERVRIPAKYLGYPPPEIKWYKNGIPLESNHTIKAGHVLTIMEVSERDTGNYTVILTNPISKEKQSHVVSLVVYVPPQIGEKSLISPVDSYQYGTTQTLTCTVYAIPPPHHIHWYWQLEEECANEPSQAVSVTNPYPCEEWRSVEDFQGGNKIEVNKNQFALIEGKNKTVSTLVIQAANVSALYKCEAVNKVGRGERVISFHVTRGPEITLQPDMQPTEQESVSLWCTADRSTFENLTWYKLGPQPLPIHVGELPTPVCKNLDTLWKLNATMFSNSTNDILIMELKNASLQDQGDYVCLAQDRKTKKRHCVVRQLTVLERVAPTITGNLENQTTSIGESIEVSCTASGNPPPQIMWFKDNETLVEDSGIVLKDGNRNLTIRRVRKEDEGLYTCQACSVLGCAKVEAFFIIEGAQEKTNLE

B1: biotin-V21H4 (VHH)
VHH: QVQLVESGGGLVQAGGSLRLSCAASGRAFSSYAMGWFRQAPGKERELVAAISWSDDSTYYANSVKGRFTISRDNAKSAVYLQMNSLKPEDTAVYYCAAHKSLQRPDEYTYWGQGTQVTVSS
notes: residues 1-127: V21 core (122 residues, ending at S122) and the first of the added C-terminal residues G123-C136; C136 is the added terminal cysteine; 136 residues in all; also called V21H4 antibody; biotinylated V21H4
B1: the figures for the EC50 (with recombinant VEGFR2/Fc; in experiment [1]) were 1.8 nM and 1.6 nM, respectively.

B2: VEGFR1/Fc (Fc fusion, UniProt P17948 27-758, looked up)
chain: SKLKDPELSLKGTQHIMQAGQTLHLQCRGEAAHKWSLPEMVSKESERLSITKSACGRNGKQFCSTLTLNTAQANHTGFYSCKYLAVPTSKKKETESAIYIFISDTGRPFVEMYSEIPEIIHMTEGRELVIPCRVTSPNITVTLKKFPLDTLIPDGKRIIWDSRKGFIISNATYKEIGLLTCEATVNGHLYKTNYLTHRQTNTIIDVQISTPRPVKLLRGHTLVLNCTATTPLNTRVQMTWSYPDEKNKRASVRRRIDQSNSHANIFYSVLTIDKMQNKDKGLYTCRVRSGPSFKSVNTSVHIYDKAFITVKHRKQQVLETVAGKRSYRLSMKVKAFPSPEVVWLKDGLPATEKSARYLTRGYSLIIKDVTEEDAGNYTILLSIKQSNVFKNLTATLIVNVKPQIYEKAVSSFPDPALYPLGSRQILTCTAYGIPQPTIKWFWHPCNHNHSEARCDFCSNNEESFILDADSNMGNRIESITQRMAIIEGKNKMASTLVVADSRISGIYICIASNKVGTVGRNISFYITDVPNGFHVNLEKMPTEGEDLKLSCTVNKFLYRDVTWILLRTVNNRTMHYSISKQKMAITKEHSITLNLTIMNVSLQDSGTYACRARNVYTGEEILQKKEITIRDQEAPYLLRNLSDHTVAISSSTTLDCHANGVPEPQITWFKNNHKIQQEPGIILGPGSSTLFIERVTEEDEGVYHCKATNQKGSVESSAYLTVQGTSDKSNLE
notes: vascular endothelial growth factor receptor 1 (VEGFR1), recombinant Fc fusion protein; also called recombinant Fc fusion protein of VEGFR1; source: bought: R&D Systems
On to B2, for which, in the experiment with V21H4-DOS47, the binding result is “no binding”.

As usually defined, the EC50 is the concentration at which the effect is half-maximal.

Source of the values: publication PMC5566995, “Development and Characterization of a Camelid Single Domain Antibody–Urease Conjugate That Targets Vascular Endothelial Growth Factor Receptor 2” (Frontiers in Immunology, 2017).
